From patent US20220387586A1 (Hoffmann-La Roche, published 2022)
Each block holds one binder with its values, some of them ahead of it.

Legend:
[1] = biological target: T1, biotinylated PD1-ECD-AviHis (human, UniProt Q15116 25-170, biotinylated); experiment: ELISA (hu PD1, as described above)
T1 construct: also called huPD1; hu PD1; not shown: Avi-His tag
Method: After washing (3×90 μl/well with PBST-buffer) 25 μl/well goat-anti-human H+L-POD (JIR, JIR109-036-088)/Sheep-anti-mouse-POD (GE Healthcare; NA9310) was added in 1:2000/1:1000 dilution and incubated at RT for 1 h on shaker. After washing (3×90 μl/well with PBST-buffer) 25 μl/well TMB substrate (Roche Catalogue No. 11835033001) was added and incubated until OD 2-3. Measurement took place at 370/492 nm.

hu PD1-ECD [2] = biological target: T2, hu PD1-ECD (human, UniProt Q15116 25-170); experiment: SPR; row head 'Affinity KD 37° C.'; first of two numbers
T2 construct: SPR analyte; also called human PD1-ECD
Method: (§1) The samples were injected for 20 seconds with a concentration of 10 nM and bound to the second flow cell.

hu PD1-ECD [3] = biological target: T2, hu PD1-ECD; experiment: SPR; row head 'Affinity KD 37° C.'; second of two numbers, equal to the 25 °C value of Table 3
hu PD1-ECD [4] = biological target: T2, hu PD1-ECD; experiment: SPR (Biacore T200), antibody captured by anti-human IgG, hu PD1-ECD as analyte, 25 °C, 1:1 Langmuir fit
Method: Therefore, an anti-human IgG was immobilized by amine coupling to the surface of a (Biacore) CM5 sensor chip. […] The sensor chip surface was regenerated after each analysis cycle. The equilibrium constant and kinetic rate constants were finally gained by fitting the data to a 1:1 langmuir interaction model.
as §1
Finally the double referenced data was fitted to a 1:1 Langmuir interaction model with the Biacore T200 Evaluation Software.

[5] = biological target: T1, biotinylated PD1-ECD-AviHis; experiment: ELISA on coated biotinylated PD1-ECD-AviHis
[6] = biological target: T3, full-length human PD1 on cells (human, UniProt Q15116 25-288); experiment: cell ELISA on CHO-K1 cells expressing full-length human PD1
T3 construct: also called CHO-PD1
Method: (to avoid internalization). After washing carefully (1×90 μl/well PBST) cells were fixed by adding 30 μl/well 0.05% Glutaraldehyde (Sigma, Cat.No: G5882, 25%) diluted in 1×PBS-buffer and incubated for 10 min at RT. After washing (3×90 μl/well PBST) 25 μl/well secondary antibody was added for detection: goat-anti-human H+L-POD (JIR, JIR109-036-088)/Sheep-anti-mouse-POD (GE NA9310) followed by 1h incubation at RT on shaker. After washing (3×90 μl/well PBST) 25 μl/well TMB substrate solution (Roche 11835033001) was added and incubated until OD 1.0-2.0. Plates were measured at 370/492 nm.

[7] = biological target: T4, biotinylated cynoPD1-ECD-Biotin (cynomolgus, UniProt B0LAJ3 25-170, biotinylated; the site and any Avi or His tag are not stated in the passages shown); experiment: ELISA on cyno PD1; row head 'cynomolgus crossreactivity (EC50 [nm])'
T4 construct: also called cyPD1

[8] = biological target: T4, biotinylated cynoPD1-ECD-Biotin; experiment: ELISA on coated cynoPD1-ECD-Biotin
[9] = biological target: T5, LAG3 on cells (recombinant CHO cells expressing Lag3) (human, UniProt P18627 29-525); experiment: cell-based or functional assay
T5 sequence: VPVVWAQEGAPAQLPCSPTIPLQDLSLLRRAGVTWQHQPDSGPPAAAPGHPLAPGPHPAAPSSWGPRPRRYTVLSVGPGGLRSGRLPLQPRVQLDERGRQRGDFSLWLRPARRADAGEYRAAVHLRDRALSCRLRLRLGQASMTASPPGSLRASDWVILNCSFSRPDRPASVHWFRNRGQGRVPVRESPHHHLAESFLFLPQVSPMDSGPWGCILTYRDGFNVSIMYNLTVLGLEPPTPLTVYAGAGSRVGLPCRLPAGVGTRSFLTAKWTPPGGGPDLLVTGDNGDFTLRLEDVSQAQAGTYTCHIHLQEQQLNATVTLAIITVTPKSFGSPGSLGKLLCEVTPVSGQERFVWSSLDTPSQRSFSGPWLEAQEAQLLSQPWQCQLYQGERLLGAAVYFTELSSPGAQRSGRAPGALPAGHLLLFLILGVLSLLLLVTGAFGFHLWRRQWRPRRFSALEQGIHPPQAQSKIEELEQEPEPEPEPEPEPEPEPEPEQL

biotinylated-Lag3 = biological target: T6, biotinylated-Lag3 (UniProt P18627 23-450, limits assumed, biotinylated); experiment: ELISA, inhibition of biotinylated-Lag3 binding to MHC-II on A375 cells (competitor MHC-II)
T6 construct: Probably a human LAG3 ECD construct; also called Lag3 (MHCII/ELISA)
T6 sequence (looked up): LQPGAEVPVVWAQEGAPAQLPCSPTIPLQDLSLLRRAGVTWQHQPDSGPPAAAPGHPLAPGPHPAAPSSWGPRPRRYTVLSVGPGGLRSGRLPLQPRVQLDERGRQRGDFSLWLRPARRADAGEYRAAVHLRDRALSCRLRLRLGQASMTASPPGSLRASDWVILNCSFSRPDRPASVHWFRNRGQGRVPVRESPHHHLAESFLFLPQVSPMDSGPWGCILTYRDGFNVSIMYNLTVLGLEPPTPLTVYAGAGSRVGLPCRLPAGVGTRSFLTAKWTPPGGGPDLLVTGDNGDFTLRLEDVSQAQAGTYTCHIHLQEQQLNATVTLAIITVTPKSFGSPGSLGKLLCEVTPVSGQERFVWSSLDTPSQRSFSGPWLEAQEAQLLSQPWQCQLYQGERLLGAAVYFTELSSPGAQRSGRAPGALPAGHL
Method: 25 μl/well of A375 cells (10000 cells/well) were seeded into tissue culture treated 384-well plates (Corning, 3701) and incubated at 37° C. overnight. […] After washing (1×90 μl in PBST) cells were fixed by addition of 30 μl/well glutaraldehyde to a final concentration of 0.05% (Sigma Cat.No: G5882), 10 min at room temperature. After washing (3×90 μl/well with PBST-buffer) 25 μl/well Poly-HRP40-Streptavidin (Fitzgerald, 65R-S104PHRPx) was added in a 1:2000 or 1:8000 dilution and incubated at RT for 1 h. After washing (3×90 μl/well with PBST-buffer) 25 μl/well TMB substrate (Roche, #11835033001) was added and incubated for 2 to 10 min. Measurement took place on a Tecan Safire 2 instrument at 370/492 nm.

cynomolgus LAG3 on cells = biological target: T7, cynomolgus LAG3 on cells (cynomolgus); experiment: flow cytometry on activated cynomolgus PBMC, 10 µg/ml (only 2nd Ab (hu): 7.62)
T7 construct: whole, on cells; also called cyno-LAG-3; cynoLAG3
Method: Thus, cynomolgus peripheral blood mononuclear cells (PBMC) were prepared from fresh cynomolgus blood and were then activated by CD3/CD28 pre-treatment (1 μg/ml) for 2-3 days. […] After staining, cells were washed two times with PBS/2% FCS and analyzed on a FACS Fortessa (BD).

[10] = biological target: T5, LAG3 on cells (recombinant CHO cells …); experiment: cell-based or functional assay; remark: listed apart in the source
[11] = biological target: T3, full-length human PD1 on cells; experiment: cell-based or functional assay
[12] = biological target: PD1 on PD1+LAG3+ human U2OS cells (UniProt Q15116 25-288); experiment: cellular PD1/LAG3 dimerization assay, 7500 PD1+LAG3+ U2OS cells a well, 20 h at 37 °C, chemoluminescence; the signal needs PD1 and LAG3 bound at once
Method: Next, assay plates were equilibrated to room temperature and a substrate/buffer mix (PathHunterFlash detection reagent, Discoverx) was added and again incubated for 4h. For measuring chemoluminescence induced upon simultaneous binding and dimerization a SpectraMax L plate reader (Molecular Devices) was used.

T4 sequence (B0LAJ3 entry or part of it limits assumed): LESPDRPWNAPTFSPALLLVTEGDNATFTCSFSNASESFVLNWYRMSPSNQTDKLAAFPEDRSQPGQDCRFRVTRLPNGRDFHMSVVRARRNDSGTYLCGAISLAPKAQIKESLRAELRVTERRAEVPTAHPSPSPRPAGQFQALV
T3 sequence (Q15116 25-288 limits assumed): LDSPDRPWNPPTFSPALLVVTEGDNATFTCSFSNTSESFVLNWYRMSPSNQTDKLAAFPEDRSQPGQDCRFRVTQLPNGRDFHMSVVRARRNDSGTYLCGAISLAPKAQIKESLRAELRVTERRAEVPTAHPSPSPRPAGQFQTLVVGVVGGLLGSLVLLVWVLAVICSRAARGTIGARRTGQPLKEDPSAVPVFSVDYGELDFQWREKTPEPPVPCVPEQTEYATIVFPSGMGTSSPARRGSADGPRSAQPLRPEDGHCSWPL
T2 sequence (Q15116 25-170 limits assumed): as the sequence (B0LAJ3 entry or part of it limits assumed) above, with E2D, A10P, L19V, A35T, R75Q, A144T counted along it
T1 sequence (Q15116 25-170): as the sequence (B0LAJ3 entry or part of it limits assumed) above, with E2D, A10P, L19V, A35T, R75Q, A144T counted along it
PD1 on PD1+LAG3+ human U2OS cells, sequence (Q15116 25-288): as the sequence (Q15116 25-288 limits assumed) above

B1: PD1-0103-0312 (antibody, human IgG1, V domains shown)
VH: EVQLLESGGGLVQPGGSLRLSCAASGFSFSSYTMSWVRQAPGKGLEWVATISGGGRDIYYPDSVKGRFTISRDNSKNTLYLQMNSLRAEDTAVYYCVLLTGRVYFALDSWGQGTLVTVSS
VL: DIVMTQSPDSLAVSLGERATINCKASESVDTSDNSFIHWYQQKPGQSPKLLIYRSSTLESGVPDRFSGSGSGTDFTLTISSLQAEDVAVYYCQQNYDVPWTFGQGTKVEIK
notes: Humanized; also called PD1-103-0312; PD-0103-0312
- EC50 [1]: 0.1 nM
- Kd (hu PD1-ECD [2]): 1.5 nM
- Kd (hu PD1-ECD [3]): 1.8 nM
- Kd (hu PD1-ECD [4]): 1.8 nM
- koff (hu PD1-ECD [4]): 0.000345 s⁻¹
- kon (hu PD1-ECD [4]): 195000 M⁻¹ s⁻¹
- EC50 [5]: 0.011 µg/mL
- EC50 [6]: 0.0101 µg/mL
- EC50 [7]: 0.08 nM
- EC50 [8]: 0.0083 µg/mL

B2: PD1-0103-0314 (antibody, human IgG1, V domains shown)
VH: B1 VH
VL: EIVLTQSPATLSLSPGERATLSCRASESVDTSDNSFIHWYQQKPGQSPRLLIYRSSTLESGIPARFSGSGSGTDFTLTISSLEPEDFAVYYCQQNYDVPWTFGQGTKVEIKR
notes: Humanized; also called PD1-103-0314; PD-0103-0314
- EC50 [1]: 0.07 nM
- Kd (hu PD1-ECD [2]): 1.6 nM
- Kd (hu PD1-ECD [3]): 1.5 nM
- Kd (hu PD1-ECD [4]): 1.5 nM
- koff (hu PD1-ECD [4]): 0.000279 s⁻¹
- kon (hu PD1-ECD [4]): 187000 M⁻¹ s⁻¹
- EC50 [5]: 0.011 µg/mL
- EC50 [6]: 0.0077 µg/mL
- EC50 [7]: 0.05 nM
- EC50 [8]: 0.0083 µg/mL

B3: PD1-0103-0313 (antibody, human IgG1, V domains shown)
VH: B1 VH
VL: DVVMTQSPLSLPVTLGQPASISCRASESVDTSDNSFIHWYQQRPGQSPRLLIYRSSTLESGVPDRFSGSGSGTDFTLKISRVEAEDVGVYYCQQNYDVPWTFGQGTKVEIK
notes: Humanized; also called PD1-103-0313; PD-0103-0313
- EC50 [1]: 0.07 nM
- Kd (hu PD1-ECD [2]): 1.9 nM
- Kd (hu PD1-ECD [3]): 2.3 nM
- Kd (hu PD1-ECD [4]): 2.3 nM
- koff (hu PD1-ECD [4]): 0.000367 s⁻¹
- kon (hu PD1-ECD [4]): 160000 M⁻¹ s⁻¹
- EC50 [5]: 0.015 µg/mL
- EC50 [6]: 0.0108 µg/mL
- EC50 [7]: 0.06 nM
- EC50 [8]: 0.011 µg/mL

B6: PD1/LAG3 0750 (bispecific antibody, human IgG1, kappa, L234A L235A)
heavy 1: not shown
heavy 2: EVQLLESGGGLVQPGGSLRLSCAASGFIFDDYTMNWVRQAPGKGLEWVAVISWDGGGTYYTDSVKGRFTISRDDFKNTLYLQMNSLRAEDTAVYYCAKGLTDTTLYGSDYWGQGTLVTVSSASTKGPSVFPLAPSSKSTSGGTAALGCLVEDYFPEPVTVSWNSGALTSGVHTFPAVLQSSGLYSLSSVVTVPSSSLGTQTYICNVNHKPSNTKVDEKVEPKSCDKTHTCPPCPAPEAAGGPSVFLFPPKPKDTLMISRTPEVTCVVVDVSHEDPEVKFNWYVDGVEVHNAKTKPREEQYNSTYRVVSVLTVLHQDWLNGKEYKCKVSNKALGAPIEKTISKAKGQPREPQVCTLPPSRDELTKNQVSLSCAVKGFYPSDIAVEWESNGQPENNYKTTPPVLDSDGSFFLVSKLTVDKSRWQQGNVFSCSVMHEALHNHYTQKSLSLSPGKGGGGSGGGGSEVQLLESGGGLVQPGGSLRLSCAASGFIFDDYTMNWVRQAPGKGLEWVAVISWDGGGTYYTDSVKGRFTISRDDFKNTLYLQMNSLRAEDTAVYYCAKGLTDTTLYGSDYWGQGTLVTVSSASTKGPSVFPLAPSSKSTSGGTAALGCLVEDYFPEPVTVSWNSGALTSGVHTFPAVLQSSGLYSLSSVVTVPSSSLGTQTYICNVNHKPSNTKVDEKVEPKSC
light 1: EVQLLESGGGLVQPGGSLRLSCAASGFSFSSYTMSWVRQAPGKGLEWVATISGGGRDIYYPDSVKGRFTISRDNSKNTLYLQMNSLRAEDTAVYYCVLLTGRVYFALDSWGQGTLVTVSSASVAAPSVFIFPPSDEQLKSGTASVVCLLNNFYPREAKVQWKVDNALQSGNSQESVTEQDSKDSTYSLSSTLTLSKADYEKHKVYACEVTHQGLSSPVTKSFNRGEC
light 2: not shown
notes: 2+1 trans format: one LAG3 Fab N-terminal, one fused to the C-terminus of the Fc hole chain; also called 1 + 2 trans
- EC50 [nM], PD-1 & LAG-3 combo reporter assay (NFAT luciferase) [10]: 0.6 nM
- EC50 [nM], PD-1 & LAG-3 combo reporter assay (NFAT luciferase) [11]: 0.6 nM
- EC50 (read off the curve) [12]: ~0.06 nM

Continued, values first:

- EC50 [nM] in Jurkat LAG3 + SED + Raji (NFAT luciferase), 2nd assay [9]: 22.6 nM
- IC50 (biotinylated-Lag3): 1 nM
- % positive cyno cells (PBLs) after CD3/CD28 activation (cynomolgus LAG3 on cells): 50.7%
B4: humanized BAP050 (LAG525) (antibody, V domains shown)
VH: QIQLVQSGPELKKPGETVKISCKASGFTLTNYGMNWVRQTPGKGLKWMGWINTDTGEPTYADDFKGRFAFSLETSASTASLQINNLKNADTATYFCARNPPYYYGTNNAEAMDYWGQGTTVTVSS
VL: DIQMTQTTSSLSASLGDRVTISCSSSQDISNYLNWYQQKPDGTVKVLIYYTSTLHLGVPSRFSGSGSGTDYSLTISNLELEDIATYYCQQYYNLPWTFGQGTKVEIK
notes: also called aLAG3(BAP050)

- % positive cyno cells (PBLs) after CD3/CD28 activation (cynomolgus LAG3 on cells): 18.6%
B5: Reference LAG3 antibody BMS-986016 (antibody, V domains shown)
VH: QVQLQQWGAGLLKPSETLSLTCAVYGGSFSDYYWNWIRQPPGKGLEWIGEINHRGSTNSNPSLKSRVTLSLDTSKNQFSLKLRSVTAADTAVYYCAFGYSDYEYNWFDPWGQGTLVTVSS
VL: EIVLTQSPATLSLSPGERATLSCRASQSISSYLAWYQQKPGQAPRLLIYDASNRATGIPARFSGSGSGTDFTLTISSLEPEDFAVYYCQQRSNWPLTFGQGTNLEIK
notes: also called aLAG3(BMS986016)
